# B1: SplitCore183 (split subunit of coreN plus coreC183) (complex)
# chain 1: MDIDPYKEFGATVELLSFLPSDFFPSVRDLLDTASALYREALESPEHCSPHHTALRQAILCWGELMTLATWVGVNLEDP
# chain 2: MASRDLVVSYVNTNMGLKFRQLLWFHISCLTFGRETVIEYLVSFGVWIRTPPAYRPPNAPILSTLPETTVVRRRGRSPRRRTPSPRRRRSQSPRRRRSQSRESQC
# B2: SplitCore149 (split subunit of coreN plus coreC149) (complex)
# chain 1: MDIDPYKEFGATVELLSFLPSDFFPSVRDLLDTASALYREALESPEHCSPHHTALRQAILCWGELMTLATWVGVNLEDP
# chain 2: MASRDLVVSYVNTNMGLKFRQLLWFHISCLTFGRETVIEYLVSFGVWIRTPPAYRPPNAPILSTLPETTVV
# B3: HBc149H6 (contiguous truncated HBV core protein, aa 1-149, with C terminal His6) (domain or fragment)
# chain: MDIDPYKEFGATVELLSFLPSDFFPSVRDLLDTASALYREALESPEHCSPHHTALRQAILCWGELMTLATWVGVNLEDPASRDLVVSYVNTNMGLKFRQLLWFHISCLTFGRETVIEYLVSFGVWIRTPPAYRPPNAPILSTLPETTVV
# Biological target: the molecule itself
# Test: native gel or EMSA
row,Protein,binding result
1,B1,binds
2,B2,binds
3,B3,binds

# From PMC3216493 (Scientific Reports, 2011)
